± gives the uncertainty stated by the source.
Experiment: self-splicing fitness, log relative to wild type (ln ratio); higher = more splicing; Tetrahymena group I intron in knt gene, E. coli kanamycin selection, DiMSum; sequences stand for … in CUCUCU…GGAGGGAAAAGUUAUCAGGCAUGCACCUGGUAGCUAGUCUUUAAACCAAUAGAUUGCAUCGGUUUAAAAGGCAAGACCGUCAAAUUGCGGGAAAGGGGUCAACAGCCGUUCAGUACCAAGUCUCAGGGGAAACUUUGAGAUGGCCUUGCAAAGGGUAUGGUAAUAAGCUGACGGACAUGGUCCUAACCACGCAGCCAAGUCCUAAGUCAACAGAUCUUCUGUUGAUAUGGAUGCAGUUCACAGACUAAAUGUCGGUCGGGGAAGAUGUAUUCUUCUCAUAAGAUAUAGUCGGACCUCUCCUUAAUGGGAGCUAGCGGAUGAAGUGAUGCAACACUGGAGCCGCUGGGAACUAAUUUGUAUGCGAAAGUAUAUUGAUUAGUUUUGGAGUACUCGUGGUCG
Method in brief: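 Six replicate transformations of E. coli BL21(DE3) with a pET-22b(+) library were grown overnight at 37°C or 30°C. The library randomised all eight P1ex-region intron nucleotides, the intron lying in the knt kanamycin-resistance gene, and plates were LB agar with or without 25 μg/mL kanamycin plus 100 μg/mL carbenicillin, 50 μM IPTG and 0.2% rhamnose. Pooled colonies were amplicon-sequenced on an Illumina HiSeq 2500, and fitness is the DiMSum error-weighted combination of wild-type-normalised replicate fold changes, kanamycin versus none.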

Row | Sequence | self-splicing fitness (ln) (37 °C) | self-splicing fitness (ln) (30 °C)
1 | GCCAAGCAAUAUUACGGGCC | -2.13 ± 0.32 | –
2 | CGAAAGCAAUAUUACGUGUC | -2.71 ± 0.22 | -3.94 ± 0.34
3 | AGAAAGCAAUAUUACGUAAC | -2.47 ± 0.33 | -3.26 ± 0.22
4 | GGAAAGCAAUAUUACGCGAG | 0.758 ± 0.1 | -0.597 ± 0.1
5 | CGAGAGCAAUAUUACGACUG | -0.27 ± 0.19 | -1.29 ± 0.15
6 | GACGAGCAAUAUUACGCGAG | -2.85 ± 0.26 | -2.3 ± 0.17
7 | AGAGAGCAAUAUUACGGACU | -0.495 ± 0.17 | -0.413 ± 0.12
8 | GAUCAGCAAUAUUACGGUAU | -0.46 ± 0.078 | -0.247 ± 0.068
9 | GGCUAGCAAUAUUACGAACG | -0.168 ± 0.094 | -0.636 ± 0.066
10 | CACCAGCAAUAUUACGUGAA | -0.875 ± 0.096 | -4.03 ± 0.14
11 | CACUAGCAAUAUUACGUUGU | -2.08 ± 0.12 | -4.22 ± 0.14
12 | GAAUAGCAAUAUUACGGCUC | 0.374 ± 0.14 | 0.451 ± 0.09
13 | UUGGAGCAAUAUUACGCUCC | -0.876 ± 0.46 | -2.79 ± 0.33
14 | UGAGAGCAAUAUUACGCAAU | -3 ± 0.43 | –
15 | GGCGAGCAAUAUUACGAUCC | -0.128 ± 0.12 | -0.772 ± 0.092
16 | GUUCAGCAAUAUUACGGUCG | -0.788 ± 0.15 | -0.812 ± 0.099
17 | CUACAGCAAUAUUACGAGGC | -1.35 ± 0.3 | –
18 | GGACAGCAAUAUUACGGUCG | -0.39 ± 0.14 | -1.1 ± 0.092
19 | AGUAAGCAAUAUUACGGCAC | -0.545 ± 0.2 | -2.04 ± 0.27
20 | CCACAGCAAUAUUACGUCUA | -2.43 ± 0.17 | -3.53 ± 0.24
21 | AUUUAGCAAUAUUACGUGAG | -0.846 ± 0.13 | -1.6 ± 0.083
22 | AUUGAGCAAUAUUACGGUAG | – | -3.32 ± 0.24
23 | CUACAGCAAUAUUACGUAGA | -2.56 ± 0.14 | -4.4 ± 0.21
24 | AGCAAGCAAUAUUACGUACU | -0.368 ± 0.075 | -0.47 ± 0.057
25 | GAGUAGCAAUAUUACGUCAC | – | -3.28 ± 0.24
26 | CACAAGCAAUAUUACGUACG | 0.449 ± 0.083 | -0.467 ± 0.063
27 | CCAGAGCAAUAUUACGUAGU | -2.87 ± 0.21 | -4.61 ± 0.22

Row | Sequence | self-splicing fitness (ln) (37 °C) | self-splicing fitness (ln) (30 °C)
28 | UAUAAGCAAUAUUACGUCUG | 0.316 ± 0.098 | -0.517 ± 0.081
29 | UUCUAGCAAUAUUACGGACG | 0.26 ± 0.15 | -1.14 ± 0.15
30 | GAAUAGCAAUAUUACGUUAA | -1.9 ± 0.15 | -2.56 ± 0.17
31 | CGGUAGCAAUAUUACGUUUC | – | -2.48 ± 0.32
32 | ACGAAGCAAUAUUACGCCGA | -0.414 ± 0.1 | -0.564 ± 0.086
33 | AGCUAGCAAUAUUACGGGCC | -2.51 ± 0.24 | -3.59 ± 0.26
34 | AUGCAGCAAUAUUACGCAGC | -1.91 ± 0.46 | –
35 | UGACAGCAAUAUUACGUGCC | -1.58 ± 0.15 | -1.3 ± 0.12
36 | ACUAAGCAAUAUUACGCCAG | -0.843 ± 0.2 | -0.955 ± 0.14
37 | CGAGAGCAAUAUUACGAUAA | -2.37 ± 0.45 | -4.29 ± 0.46
38 | AACCAGCAAUAUUACGGAAG | 0.117 ± 0.089 | -1.22 ± 0.066
39 | GAGCAGCAAUAUUACGCCCA | 0.255 ± 0.26 | -0.299 ± 0.18
40 | CUUGAGCAAUAUUACGAGCU | – | -1.6 ± 0.46
41 | GUCUAGCAAUAUUACGCGAA | -0.134 ± 0.19 | -1.36 ± 0.23
42 | GUGGAGCAAUAUUACGAACG | -1.53 ± 0.41 | -2.43 ± 0.43
43 | AUGUAGCAAUAUUACGCUUU | -1.29 ± 0.11 | -3.23 ± 0.15
44 | UCAAAGCAAUAUUACGACCG | 0.396 ± 0.21 | -0.525 ± 0.15
45 | GCUGAGCAAUAUUACGGCGC | -0.0749 ± 0.15 | -0.35 ± 0.13
46 | UGCCAGCAAUAUUACGCGCA | -1.06 ± 0.16 | -2.51 ± 0.28
47 | GUGCAGCAAUAUUACGAUAC | -0.0479 ± 0.17 | -1.58 ± 0.2
48 | AGGCAGCAAUAUUACGAUUA | -0.936 ± 0.095 | -1.12 ± 0.1
49 | CGACAGCAAUAUUACGGCCC | -0.549 ± 0.24 | -0.607 ± 0.19
50 | ACAAAGCAAUAUUACGUAAA | -0.302 ± 0.092 | -2.08 ± 0.069
51 | AAUGAGCAAUAUUACGACAA | -1.93 ± 0.25 | -3.01 ± 0.27
52 | UUGCAGCAAUAUUACGUUUG | -0.998 ± 0.14 | -2.14 ± 0.14
53 | AAACAGCAAUAUUACGAAUC | -1.54 ± 0.22 | -4.43 ± 0.46
54 | AACAAGCAAUAUUACGAUAA | -1.15 ± 0.11 | -1.62 ± 0.084

Row | Sequence | self-splicing fitness (ln) (37 °C) | self-splicing fitness (ln) (30 °C)
55 | UUCAAGCAAUAUUACGCUCU | 0.387 ± 0.21 | -1.37 ± 0.17
56 | CGGGAGCAAUAUUACGGUUU | -1.19 ± 0.32 | –
57 | GUACAGCAAUAUUACGGGAC | -1.22 ± 0.14 | -1.7 ± 0.12
58 | GUGGAGCAAUAUUACGGCAC | -0.386 ± 0.31 | -1.39 ± 0.19
59 | CAUUAGCAAUAUUACGGGAA | -2.59 ± 0.41 | –
60 | UUUAAGCAAUAUUACGUGGG | -2.1 ± 0.17 | -2.92 ± 0.13
61 | GUGCAGCAAUAUUACGGAGC | -1.97 ± 0.19 | -1.85 ± 0.2
62 | ACGAAGCAAUAUUACGUCGA | -1.65 ± 0.1 | -2.34 ± 0.12
63 | UCACAGCAAUAUUACGAUAU | -2.67 ± 0.19 | -2.96 ± 0.22
64 | CGCAAGCAAUAUUACGAAAC | -0.979 ± 0.12 | -3.46 ± 0.37
65 | UGCCAGCAAUAUUACGUUAG | -0.975 ± 0.13 | -2.26 ± 0.12
66 | CUCGAGCAAUAUUACGACGG | -0.385 ± 0.18 | -1.94 ± 0.15
67 | CACAAGCAAUAUUACGACAA | -2.04 ± 0.17 | -3.12 ± 0.2
68 | UGAUAGCAAUAUUACGGUAA | -1.62 ± 0.35 | –
69 | CCGUAGCAAUAUUACGAUUA | -1.86 ± 0.26 | -2.57 ± 0.2
70 | CAUAAGCAAUAUUACGCGUC | -2.15 ± 0.2 | -3.98 ± 0.26
71 | AUUCAGCAAUAUUACGUAUA | -0.805 ± 0.17 | -1.66 ± 0.16
72 | GGAUAGCAAUAUUACGUAUA | -0.564 ± 0.15 | -2.53 ± 0.2
73 | GAAAAGCAAUAUUACGUCCA | 0.0901 ± 0.089 | -0.703 ± 0.064
74 | AUGCAGCAAUAUUACGAAGU | -1.75 ± 0.12 | -2 ± 0.15
75 | GAGGAGCAAUAUUACGGGUA | -2.26 ± 0.36 | –
76 | AGAUAGCAAUAUUACGCCGU | -0.953 ± 0.12 | -0.974 ± 0.11
77 | AGCGAGCAAUAUUACGUUCA | -0.891 ± 0.091 | -1.81 ± 0.096
78 | CAUGAGCAAUAUUACGAUAA | -1.97 ± 0.3 | -3.72 ± 0.35
79 | AUUUAGCAAUAUUACGUCGG | -3.18 ± 0.32 | -3.82 ± 0.4
